Bridge positions count the residues as written; N and C are the ends. Square brackets hold non-standard residues; d marks the D form. Ends that are not written are not given here.
B1: bifunctional hormone of SEQ ID NO: 42 (peptide)
peptide: Ac-EH[dF]RWGRRSSCFGGRMDRIGAQSGLGCNSFRY-NH2
modifications: disulfide 11-27
SMILES: CC[C@H](C)[C@@H]1NC(=O)[C@H](CCCNC(=N)N)NC(=O)[C@H](CC(=O)O)NC(=O)[C@H](CCSC)NC(=O)[C@H](CCCNC(=N)N)NC(=O)CNC(=O)CNC(=O)[C@H](Cc2ccccc2)NC(=O)[C@@H](NC(=O)[C@H](CO)NC(=O)[C@H](CO)NC(=O)[C@H](CCCNC(=N)N)NC(=O)[C@H](CCCNC(=N)N)NC(=O)CNC(=O)[C@H](Cc2c[nH]c3ccccc23)NC(=O)[C@H](CCCNC(=N)N)NC(=O)[C@@H](Cc2ccccc2)NC(=O)[C@H](Cc2c[nH]cn2)NC(=O)[C@H](CCC(=O)O)NC(C)=O)CSSC[C@@H](C(=O)N[C@@H](CC(N)=O)C(=O)N[C@@H](CO)C(=O)N[C@@H](Cc2ccccc2)C(=O)N[C@@H](CCCNC(=N)N)C(=O)N[C@@H](Cc2ccc(O)cc2)C(N)=O)NC(=O)CNC(=O)[C@H](CC(C)C)NC(=O)CNC(=O)[C@H](CO)NC(=O)[C@H](CCC(N)=O)NC(=O)[C@H](C)NC(=O)CNC1=O
B2: bifunctional hormone of SEQ ID NO: 38 (peptide)
peptide: Ac-HFRWGRRSSCFGGRMDRIGAQSGLGCNSFRY-NH2
modifications: disulfide 10-26
SMILES: CC[C@H](C)[C@@H]1NC(=O)[C@H](CCCNC(=N)N)NC(=O)[C@H](CC(=O)O)NC(=O)[C@H](CCSC)NC(=O)[C@H](CCCNC(=N)N)NC(=O)CNC(=O)CNC(=O)[C@H](Cc2ccccc2)NC(=O)[C@@H](NC(=O)[C@H](CO)NC(=O)[C@H](CO)NC(=O)[C@H](CCCNC(=N)N)NC(=O)[C@H](CCCNC(=N)N)NC(=O)CNC(=O)[C@H](Cc2c[nH]c3ccccc23)NC(=O)[C@H](CCCNC(=N)N)NC(=O)[C@H](Cc2ccccc2)NC(=O)[C@H](Cc2c[nH]cn2)NC(C)=O)CSSC[C@@H](C(=O)N[C@@H](CC(N)=O)C(=O)N[C@@H](CO)C(=O)N[C@@H](Cc2ccccc2)C(=O)N[C@@H](CCCNC(=N)N)C(=O)N[C@@H](Cc2ccc(O)cc2)C(N)=O)NC(=O)CNC(=O)[C@H](CC(C)C)NC(=O)CNC(=O)[C@H](CO)NC(=O)[C@H](CCC(N)=O)NC(=O)[C@H](C)NC(=O)CNC1=O
B3: bifunctional hormone of SEQ ID NO: 40 (peptide)
peptide: SLRRSSCFGGRMDRIGAQSGLGCNSFRYHXRW
modifications: disulfide bridge between C residues at positions 7 and 23; D-Phe (f) at position 30; C-terminal amidation (NH2)
B4: bifunctional hormone of SEQ ID NO: 31 (peptide)
peptide: Ac-H[dF]RWGKPMCHFGGRMDRISCYR-NH2
modifications: disulfide 9-20
SMILES: CC[C@H](C)[C@@H]1NC(=O)[C@H](CCCNC(=N)N)NC(=O)[C@H](CC(=O)O)NC(=O)[C@H](CCSC)NC(=O)[C@H](CCCNC(=N)N)NC(=O)CNC(=O)CNC(=O)[C@H](Cc2ccccc2)NC(=O)[C@H](Cc2c[nH]cn2)NC(=O)[C@@H](NC(=O)[C@H](CCSC)NC(=O)[C@@H]2CCCN2C(=O)[C@H](CCCCN)NC(=O)CNC(=O)[C@H](Cc2c[nH]c3ccccc23)NC(=O)[C@H](CCCNC(=N)N)NC(=O)[C@@H](Cc2ccccc2)NC(=O)[C@H](Cc2c[nH]cn2)NC(C)=O)CSSC[C@@H](C(=O)N[C@@H](Cc2ccc(O)cc2)C(=O)N[C@@H](CCCNC(=N)N)C(N)=O)NC(=O)[C@H](CO)NC1=O
B5: bifunctional hormone of SEQ ID NO: 36 (peptide)
peptide: MEHFRWGRRSSCFGGRMDRIGAQSGLGCNSFRY-NH2
modifications: disulfide 12-28; N-terminus assumed
SMILES: CC[C@H](C)[C@@H]1NC(=O)[C@H](CCCNC(=N)N)NC(=O)[C@H](CC(=O)O)NC(=O)[C@H](CCSC)NC(=O)[C@H](CCCNC(=N)N)NC(=O)CNC(=O)CNC(=O)[C@H](Cc2ccccc2)NC(=O)[C@@H](NC(=O)[C@H](CO)NC(=O)[C@H](CO)NC(=O)[C@H](CCCNC(=N)N)NC(=O)[C@H](CCCNC(=N)N)NC(=O)CNC(=O)[C@H](Cc2c[nH]c3ccccc23)NC(=O)[C@H](CCCNC(=N)N)NC(=O)[C@H](Cc2ccccc2)NC(=O)[C@H](Cc2c[nH]cn2)NC(=O)[C@H](CCC(=O)O)NC(=O)[C@@H](N)CCSC)CSSC[C@@H](C(=O)N[C@@H](CC(N)=O)C(=O)N[C@@H](CO)C(=O)N[C@@H](Cc2ccccc2)C(=O)N[C@@H](CCCNC(=N)N)C(=O)N[C@@H](Cc2ccc(O)cc2)C(N)=O)NC(=O)CNC(=O)[C@H](CC(C)C)NC(=O)CNC(=O)[C@H](CO)NC(=O)[C@H](CCC(N)=O)NC(=O)[C@H](C)NC(=O)CNC1=O
B6: bifunctional hormone of SEQ ID NO: 39 (peptide)
peptide: Ac-H[dF]RWGRRSSCFGGRMDRIGAQSGLGCNSFRY-NH2
modifications: disulfide 10-26
SMILES: CC[C@H](C)[C@@H]1NC(=O)[C@H](CCCNC(=N)N)NC(=O)[C@H](CC(=O)O)NC(=O)[C@H](CCSC)NC(=O)[C@H](CCCNC(=N)N)NC(=O)CNC(=O)CNC(=O)[C@H](Cc2ccccc2)NC(=O)[C@@H](NC(=O)[C@H](CO)NC(=O)[C@H](CO)NC(=O)[C@H](CCCNC(=N)N)NC(=O)[C@H](CCCNC(=N)N)NC(=O)CNC(=O)[C@H](Cc2c[nH]c3ccccc23)NC(=O)[C@H](CCCNC(=N)N)NC(=O)[C@@H](Cc2ccccc2)NC(=O)[C@H](Cc2c[nH]cn2)NC(C)=O)CSSC[C@@H](C(=O)N[C@@H](CC(N)=O)C(=O)N[C@@H](CO)C(=O)N[C@@H](Cc2ccccc2)C(=O)N[C@@H](CCCNC(=N)N)C(=O)N[C@@H](Cc2ccc(O)cc2)C(N)=O)NC(=O)CNC(=O)[C@H](CC(C)C)NC(=O)CNC(=O)[C@H](CO)NC(=O)[C@H](CCC(N)=O)NC(=O)[C@H](C)NC(=O)CNC1=O

Columns and labels:
[1] = molecular target: MCR1 receptor (on MCR1 receptor-expressing B16-F1 cells) (UniProt Q01727 1-315); test: cell-based or functional assay
[2] = molecular target: ANP receptor (on ANP receptor-expressing LLC-PK1 cells); test: cell-based or functional assay

MCR1 receptor (on MCR1 receptor-expressing B16-F1 cells), sequence (Q01727 whole entry): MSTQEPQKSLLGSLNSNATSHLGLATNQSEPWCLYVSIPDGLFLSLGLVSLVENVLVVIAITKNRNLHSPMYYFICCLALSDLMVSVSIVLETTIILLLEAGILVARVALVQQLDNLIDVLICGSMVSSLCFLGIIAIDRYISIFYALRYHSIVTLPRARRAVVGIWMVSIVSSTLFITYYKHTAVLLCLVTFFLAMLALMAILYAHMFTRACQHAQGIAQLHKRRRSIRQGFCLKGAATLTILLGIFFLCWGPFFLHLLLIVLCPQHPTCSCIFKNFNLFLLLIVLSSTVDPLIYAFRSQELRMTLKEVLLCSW

| Binder | EC50 on the production of cAMP (BC16-F1 cells) [1] | EC50 on the production of cGMP (LLC-PK1 cells) [2] |
| --- | --- | --- |
| B1 | 6 nM | 502 nM |
| B2 | 259 nM | 6.9 nM |
| B3 | 9.8 nM | 7000 nM |
| B4 | 20.9 nM | 74.3 nM |
| B5 | 49.1 nM | 33.1 nM |
| B6 | 11.5 nM | 52.1 nM |
